Paper PMC7732855

B1: Listeria adhesion protein (LAP) from Listeria innocua F4248, expressed on the surface of Lactobacillus casei (strain LbcLAP^Lin) (natural protein)
chain: MAIKENAAQEVLEVQKVIDRLADNGQKALKAFESYNQEQVDNIVHAMALAGLDQHMPLAKLAVEETGRGLYEDKCIKNIFATEYIWNNIKNNKTVGVINEDTQTGVIEIAEPVGVVAGVTPVTNPTSTTLFKAIIAIKTRNPIIFAFHPSAQRCSSEAAKVVYDAAVAAGAPEHCIQWVEKPSLEATKQLMNHDKVALVLATGGAGMVKSAYSTGKPALGVGPGNVPAYIDKTAKIKRSVNDIILSKSFDQGMICASEQAVIVDKEVAKEVKAEMEANKCYFVKGAEFKKLESYVINPEKGTLNPDVVGKSPAWIANQAGFKVPEDTKILVAEIKGVGDKYPLSHEKLSPVLAFIEAANQAEAFDRCEEMLVYGGLGHSAVIHSTDKEVQKAFGIRMKACRIIVNAPSAQGGIGDIYNGFIPSLTLGCGSYGKNSVSQNVSATNLLNVKRIADRRNNMQWFKLPPKIFFEKYSTQYLQKMEGVERVFIVTDPGMVQFKYVDVVIEHLKKRGNDVAYQVFADVEPDPSDVTVYKGAELMKDFKPDTIIALGGGSAMDAAKGMWLFYEHPEASFFGLKQKFLDIRKRTFKYPKLGGKAKFVAIPTTSGTGSEVTPFAVITDKENNIKYPLADYELTPDVAIVDAQYVTTVPAHITADTGMDVLTHAIESYVSVMASDYTRGLSIRAIELVFENLRESVLTGDPDAREKMHNASALAGMAFANAFLGINHSLAHKIGPEFHIPHGRANAILMPHVIRYNALKPKKHALFPRYESFRADEDYARISRIIGFPAATTEEGVKSLVDEIIKLGKDVGIDMSLKGQNVAKKDLDAVVDTLADRAFMDQCTTANPKQPLVSELKEIYLEAYKGV

Target: heat shock protein 60 (Hsp60), surface-expressed on Caco-2 cells (human (endogenous in Caco-2)) (UniProt P10809)
Chain of UniProt P10809 (P10809 27-573): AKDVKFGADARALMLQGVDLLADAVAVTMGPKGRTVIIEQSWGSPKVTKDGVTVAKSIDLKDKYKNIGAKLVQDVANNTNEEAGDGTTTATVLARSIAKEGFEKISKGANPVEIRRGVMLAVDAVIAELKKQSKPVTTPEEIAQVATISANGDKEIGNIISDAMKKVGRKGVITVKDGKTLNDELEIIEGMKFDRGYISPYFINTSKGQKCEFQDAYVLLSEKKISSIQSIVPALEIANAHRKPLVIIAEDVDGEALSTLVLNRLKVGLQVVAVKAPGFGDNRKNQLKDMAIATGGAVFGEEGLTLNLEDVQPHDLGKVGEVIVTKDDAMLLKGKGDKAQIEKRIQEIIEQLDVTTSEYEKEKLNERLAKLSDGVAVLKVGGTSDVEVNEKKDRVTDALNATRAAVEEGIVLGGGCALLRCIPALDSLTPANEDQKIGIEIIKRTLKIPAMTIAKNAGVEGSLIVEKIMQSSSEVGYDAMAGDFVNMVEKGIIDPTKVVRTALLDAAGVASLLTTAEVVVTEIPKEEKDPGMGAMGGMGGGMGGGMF

Molecule | adhesion of the BLP strain (MOE 10, 1 h) to Hsp60^+ Caco-2 cells (Hsp60 overexpressed), relative to LbcWT | adhesion of the BLP strain (MOE 10, 1 h) to Hsp60^Vec Caco-2 cells (basal Hsp60), relative to LbcWT
Listeria adhesion protein (LAP) from Listeria monocytogenes F4244, expressed on the surface of Lactobacillus casei (strain LbcLAP^Lm) (natural protein) | 9 fold | 4 fold
B1 | 9 fold | 4 fold
